B1: Hairpin Ribozyme (parent)
chain: GUCCUCUUUCACGUGCGCGUGAAAGAGAGAAGUGAACCAGAGAAACACACGUUGUGGUAUAUUACCUGGUA

Variants of: B1
Test: self-cleavage, relative activity (ratio to wild type); higher = more cleavage; co-transcriptional

In order of falling self-cleavage:
1. C16U G34C  1.53
2. G17C G34U  1.42
3. G17A A71C  1.37
4. G17U G34A  1.24
5. C18A A41C  1.21
6. G17C G34C  1.16
7. G17A A28G  1.14
8. C18A A71G  1.14
9. G17U A71G  1.1
10. C16G U52A  1.09
11. C18A U52A  1.07
12. C16U G19A  1.03
13. G17A A24U  1.03
14. C16U U70A  1.03
15. G17U A28G  1.02
16. G17C G34A  1.02
17. C18A U60A  1.02
18. C16U A24U  1.02
19. C16U U60A  1.01
20. C18A G51A  1.01
21. C16U A24G  0.997
22. C18A A24C  0.994
23. C16U C18A  0.985
24. C16U G17C  0.985
25. C16U A26G  0.959
26. C18A C65A  0.957
27. G17U U70A  0.95
28. C16U U70C  0.949
29. G17C C18A  0.947
30. C18A U20G  0.946
31. C16U G17U  0.92
32. G17A U70G  0.918
33. C18A U20A  0.917
34. G17A A24C  0.894
35. C18A G19A  0.886
36. C16U C18G  0.873
37. C16U G25U  0.873
38. C18A U52G  0.86
39. C18A A24U  0.86
40. C18A A22G  0.857
41. C18G A23G  0.84
42. G17U A49G  0.818
43. G17U A26G  0.812
44. C18G G19C  0.804
45. G17U A22U  0.793
46. G17U A24G  0.766
47. C18G A23U  0.752
48. C18A U60G  0.732
49. C18G A71U  0.698
50. C18A G21U  0.669
51. G17C C18G  0.645
52. C16U A28C  0.565
53. C18G A31G  0.549
54. G17A G54A  0.543
55. G17C G21U  0.53
56. G17U C38U  0.519
57. C16U G54A  0.518
58. C18G A26U  0.512
59. G17A A39C  0.51
60. C16U C37U  0.508
61. C18G A28U  0.5
62. C16G G54U  0.493
63. C18G C37U  0.493
64. C16G G54A  0.485
65. G17U A36U  0.483
66. G17U A39C  0.479
67. C18G C66U  0.479
68. C18A G69A  0.455
69. C16G G21U  0.442
70. G17C U60G  0.425
71. C18A A47C  0.424
72. G17U G54C  0.413
73. G17C A49G  0.409
74. G17C G69A  0.404
75. C18A G54C  0.395
76. G17C G54C  0.387
77. G17U C65U  0.383
78. C18A G42U  0.369
79. G17A G42C  0.367
80. C16U C37A  0.361
81. G17C G54A  0.36
82. C18A G42C  0.35
83. C16U C50G  0.339
84. G17U A39U  0.337
85. G17A C37G  0.332
86. G17A C50G  0.327
87. C16U A39G  0.326
88. G17A G69A  0.306
89. C16U C50A  0.295
90. G17A U63G  0.29
91. C16G U55A  0.265
92. C18G C37G  0.259
93. G17U G69U  0.258
94. G17C U55A  0.257
95. C18A G68U  0.239
96. C18G C37A  0.235
97. G17C U62C  0.233
98. C18A C46A  0.231
99. G17C U67A  0.227
100. C18G A59C  0.224
101. C18A U62C  0.22
102. G17C G57C  0.206
103. C16U A49C  0.204
104. C18A U62A  0.204
105. C18G A61C  0.201
106. G17C A61U  0.198
107. C18A G29U  0.198
108. C18A G56U  0.196
109. G17U A49U  0.195
110. G17U C50G  0.192
111. G17A C46A  0.191
112. C18A A64C  0.19
113. C18G C66G  0.19
114. C16G G56U  0.187
115. G17A G40A  0.185
116. G17A U63C  0.181
117. G17C G68U  0.181
118. C16U U62A  0.18
119. C16U C46A  0.177
120. G17U A30C  0.176
121. C18A G32A  0.169
122. C18G A31U  0.165
123. C16U U63C  0.165
124. G17U U63C  0.164
125. C18G A44C  0.164
126. G17U A61C  0.161
127. G17U A61U  0.158
128. C18A G56A  0.158
129. G17C C66A  0.154
130. C16G G68C  0.153
131. C18G A61G  0.152
132. C16U G40U  0.146
133. G17A C48A  0.145
134. G17A A49U  0.141
135. C16U C46G  0.141
136. C18A U62G  0.138
137. C18G A44U  0.135
138. C16U A64C  0.133
139. C18A C38A  0.132
140. G17A A47G  0.129
141. C18G C38G  0.125
142. C18G A43C  0.122
143. C16G U33G  0.12
144. C16G G57U  0.119
145. G17U A30U  0.116
146. C16U C48A  0.114
147. G17A U33C  0.113
148. G17A G29U  0.113
149. C18G C38A  0.11
150. C18A A45U  0.11
151. G17U C48A  0.106
152. G17A G32A  0.105
153. C16G U33A  0.105
154. G17A C48G  0.102
155. C18A C46U  0.1
156. C16G U67A  0.097
157. C18A G40C  0.0959
158. C16U A47U  0.0914
159. C16G G32C  0.091
160. G17A G29A  0.0893
161. G17U A59C  0.0796
162. C18G A43U  0.0776
163. G17U U63G  0.0762
164. G17A A30G  0.0738
165. G17C C66G  0.0719
166. G17C A44U  0.0541
167. G17A A30U  0.0442

From the RNAGym collection of RNA variant scans (doi:10.7554/elife.80360)
